These results are taken from patent US10808017B2, “Ubiquitin variants and uses therof as 53BP1 inhibitors” (The Governing Council of the University of Toronto, priority 2016, dated 2020).

For one series, the target named is T1, KDM5B (Homo sapiens, UniProt Q9UGL1).
T1 construct: endogenous in cells; host or cells: HEK293 Flp-In/T-REx
In words: Flag IP-MS of i53/i53-DM baits: prey KDM5B. Particulars: 293T Flp-In/T-Rex extracts, LC-MS/MS, one column per replicate IP. Type of series: binding. On the procedure: (§1) Following immunoprecipitation of Flag-tagged i53 and i-53-DM from HEK293 Flp-In/T-REx cells, peptides were identified using LC-MS/MS. Proteins were digested in solution with trypsin (Sigma, T7575-1KT) and dried to completeness. For LC-MS/MS analysis, peptides were reconstituted in 5% formic acid and loaded onto a 12-15 cm fused silica column with pulled tip packed in-house with 3.5 μm Zorbax C18 (Agilent Technologies, Calif., USA).
(§2) i53 and i53-DM precipitates were analyzed using an LTQ (Thermo Scientific) coupled to an Agilent 1100 Series HPLC (Agilent Technologies). Peptides were eluted from the column using a 90 min period cycle with a linear gradient from 0% to 40% ACN in 0.1% formic acid. Tandem MS spectra were acquired in a data-dependent mode for the top 5 (LTQ) most abundant ions using collision-induced dissociation. Acquired spectra were searched against the human Refseq_V53 database using Mascot (Matrix Science).
(§3) 293T Flp-In/T-Rex cell lines were generated that expressed Flag-tagged i53 or i53-DM under the control of a tetracycline-inducible promoter as previously described. Nine IP-MS experiments were analyzed (3 biological replicate IPs each for control i53- and i53-DM expressing cell lines). The interacting proteins were identified by MASCOT to identify high-confidence interactors for i53. […]

A further series has as its target T2, HIST2H2BE (Homo sapiens, UniProt Q16778).
T2 construct: endogenous in cells; host or cells: HEK293 Flp-In/T-REx cells
Kind of series: Flag IP-MS of i53/i53-DM baits: prey HIST2H2BE. It is filed as binding. Particulars: 293T Flp-In/T-Rex extracts, LC-MS/MS, one column per replicate IP. On the procedure: as §1, §2, §3

The target in another series is T3, 53BP1 (Homo sapiens, UniProt Q12888).
T3 construct: endogenous in cells; host or cells: 293T
T3 sequence (Q12888 whole entry): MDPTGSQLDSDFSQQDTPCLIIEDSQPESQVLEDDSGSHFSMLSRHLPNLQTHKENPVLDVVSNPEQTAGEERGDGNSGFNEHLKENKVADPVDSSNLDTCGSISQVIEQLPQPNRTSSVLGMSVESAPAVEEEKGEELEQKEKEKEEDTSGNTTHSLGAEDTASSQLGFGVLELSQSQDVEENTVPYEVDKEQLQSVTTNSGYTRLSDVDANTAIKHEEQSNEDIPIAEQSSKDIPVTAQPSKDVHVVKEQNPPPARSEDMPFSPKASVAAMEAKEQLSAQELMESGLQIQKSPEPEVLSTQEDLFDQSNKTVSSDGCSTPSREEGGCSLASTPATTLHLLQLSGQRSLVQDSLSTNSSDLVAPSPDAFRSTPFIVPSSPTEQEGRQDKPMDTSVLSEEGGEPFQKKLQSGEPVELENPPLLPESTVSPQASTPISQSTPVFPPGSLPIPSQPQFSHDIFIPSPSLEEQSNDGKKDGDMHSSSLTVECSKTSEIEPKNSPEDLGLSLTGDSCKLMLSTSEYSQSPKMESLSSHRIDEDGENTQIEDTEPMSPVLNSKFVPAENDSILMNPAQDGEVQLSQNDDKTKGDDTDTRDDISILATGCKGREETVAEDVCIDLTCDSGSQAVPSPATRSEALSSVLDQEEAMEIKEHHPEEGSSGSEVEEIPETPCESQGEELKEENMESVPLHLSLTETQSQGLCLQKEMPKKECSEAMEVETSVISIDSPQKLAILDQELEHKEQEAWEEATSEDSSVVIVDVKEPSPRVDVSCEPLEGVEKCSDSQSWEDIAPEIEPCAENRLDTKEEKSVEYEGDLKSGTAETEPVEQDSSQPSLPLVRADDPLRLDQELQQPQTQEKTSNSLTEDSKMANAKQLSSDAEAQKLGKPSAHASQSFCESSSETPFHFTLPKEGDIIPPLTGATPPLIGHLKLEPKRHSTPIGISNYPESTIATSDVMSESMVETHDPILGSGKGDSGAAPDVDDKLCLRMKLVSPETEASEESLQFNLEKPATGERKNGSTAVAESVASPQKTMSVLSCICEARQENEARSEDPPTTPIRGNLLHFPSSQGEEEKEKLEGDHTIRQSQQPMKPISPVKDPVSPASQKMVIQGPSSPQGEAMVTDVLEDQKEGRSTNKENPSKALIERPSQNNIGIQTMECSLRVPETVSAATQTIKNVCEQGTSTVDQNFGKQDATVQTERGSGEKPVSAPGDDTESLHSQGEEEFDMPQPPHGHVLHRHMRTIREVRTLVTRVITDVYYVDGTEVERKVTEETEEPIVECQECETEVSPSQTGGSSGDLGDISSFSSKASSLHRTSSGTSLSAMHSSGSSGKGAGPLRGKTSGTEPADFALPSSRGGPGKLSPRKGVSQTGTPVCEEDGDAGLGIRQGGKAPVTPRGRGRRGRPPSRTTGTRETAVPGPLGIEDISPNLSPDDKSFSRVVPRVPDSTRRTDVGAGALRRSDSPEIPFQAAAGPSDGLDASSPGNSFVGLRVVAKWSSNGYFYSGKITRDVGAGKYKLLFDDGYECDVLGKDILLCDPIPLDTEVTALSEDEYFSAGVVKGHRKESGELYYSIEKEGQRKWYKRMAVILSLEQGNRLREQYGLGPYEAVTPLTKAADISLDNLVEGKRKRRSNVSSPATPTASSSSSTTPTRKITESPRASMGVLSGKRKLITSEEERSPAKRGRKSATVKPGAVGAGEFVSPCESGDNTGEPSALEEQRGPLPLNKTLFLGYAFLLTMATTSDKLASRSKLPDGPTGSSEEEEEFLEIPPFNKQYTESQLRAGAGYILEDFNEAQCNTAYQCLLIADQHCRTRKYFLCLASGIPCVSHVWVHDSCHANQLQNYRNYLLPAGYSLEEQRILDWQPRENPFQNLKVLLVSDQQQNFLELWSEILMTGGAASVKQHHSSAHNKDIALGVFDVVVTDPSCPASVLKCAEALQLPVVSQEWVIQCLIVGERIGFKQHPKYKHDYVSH
In words: Flag co-immunoprecipitation from 293T cells. Type of series: binding. As to conditions: Flag IP from transfected 293T cell extracts, immunoblot. The protocol: FIG. 3. The i53 protein inhibits 53BP1. FIG. 3A-B, U2OS cells were transfected with vectors expressing i53, its 53BP1-binding deficient mutant (DM) or an empty vector (EV) control. Cells were then X-irradiated with a 10 Gy dose and processed for immunofluorescence with the indicated antibodies 1 h post-irradiation (IR). DAPI staining (not shown) was used to delineate the outline (dashed lines) of the cell nuclei. The region in the magnified inset is indicated with a square. Quantitation of the experiment is shown in panel (a) and data is indicated as the mean±s.e.m (N=3), whereas in (b) representative micrographs are shown. Arrowheads indicate Flag-positive cells. FIG. 3C, Parental or 53BP1ΔU2OS cells transfected with vectors expressing i53, the DM mutant or an empty vector (EV) control were irradiated (10 Gy) 1 h before being processed for immunofluorescence. Cell cycle stage was assessed by Cyclin A staining. The data is presented as the mean±s.e.m.; N=3. FIG. 3D, Immunoprecipitation (IP) of Flag-tagged proteins from extracts prepared from 293T cells transfected with vectors expressing Flag-i53 or the i53-DM mutant. Proteins were separated by SDS-PAGE and immunoblotted (IB) for Flag and 53BP1.
293T cells were transfected with 10 μg of pcDNA3-Flag-i53-derived plasmids using polyethylenimine (PEI). […]

Another series has as its target T4, TP53BP1 (Homo sapiens, UniProt Q12888).
T4 construct: endogenous in cells; host or cells: HEK293 Flp-In/T-REx
In words: Flag IP-MS of i53/i53-DM baits: prey TP53BP1. Type of series: binding. The protocol: as §1, §2, §3

Series [1] has as its system BFP transgene in 293T cells. In words: ssODN-based BFP-to-GFP HR assay. It is filed as cell-based. As to conditions: AAV-DJ transduced 293T cells, Cas9 RNP, 4 d, versus i53-DM. The source says:
FIG. 11. 53BP1 inhibition by i53 stimulates ssODN-mediated homologous recombination. FIG. 11A, Schematic of the BFP-to-GFP conversion assay. Cells carrying a stably integrated BFP transgene are transfected with Cas9 ribonucleoproteins (RNPs) programmed with a gRNA against the BFP coding sequence along with an ssODN that converts 3 nucleotides of BFP into those that produce a GFP protein upon successful HR-mediated repair. FIG. 11B-C, 293T cells that were first transduced with AAV-DJ1 vectors coding for i53-DM or i53 with the BFP transgene were nucleofected with Cas9 RNPs and optimal (b) and suboptimal (c) ssODN repair donors that convert BFP to GFP. 4 d after nucleofection, GFP fluorescence was monitored by flow cytometry. […] 3 d post-nucleofection, genomic DNA was isolated and the presence of the Pcil restriction fragment length polymorphism (RFLP) was determined by restriction digest on PCR-amplified genomic DNA. […]
The BFP-to-GFP assay was performed essentially as described Richardson CD et al, Nat Biotechnol. […] After 4 days, BFP and GFP fluorescence were measured by flow cytometry on a BD Fortessa, and analyzed with FlowJo v10 software. […]

“And” between values parts separate entries of the source, which are not always exact repeats. Equal entries are not always repeated.

T4 sequence (Q12888 whole entry): as above
T1 sequence (Q9UGL1 whole entry): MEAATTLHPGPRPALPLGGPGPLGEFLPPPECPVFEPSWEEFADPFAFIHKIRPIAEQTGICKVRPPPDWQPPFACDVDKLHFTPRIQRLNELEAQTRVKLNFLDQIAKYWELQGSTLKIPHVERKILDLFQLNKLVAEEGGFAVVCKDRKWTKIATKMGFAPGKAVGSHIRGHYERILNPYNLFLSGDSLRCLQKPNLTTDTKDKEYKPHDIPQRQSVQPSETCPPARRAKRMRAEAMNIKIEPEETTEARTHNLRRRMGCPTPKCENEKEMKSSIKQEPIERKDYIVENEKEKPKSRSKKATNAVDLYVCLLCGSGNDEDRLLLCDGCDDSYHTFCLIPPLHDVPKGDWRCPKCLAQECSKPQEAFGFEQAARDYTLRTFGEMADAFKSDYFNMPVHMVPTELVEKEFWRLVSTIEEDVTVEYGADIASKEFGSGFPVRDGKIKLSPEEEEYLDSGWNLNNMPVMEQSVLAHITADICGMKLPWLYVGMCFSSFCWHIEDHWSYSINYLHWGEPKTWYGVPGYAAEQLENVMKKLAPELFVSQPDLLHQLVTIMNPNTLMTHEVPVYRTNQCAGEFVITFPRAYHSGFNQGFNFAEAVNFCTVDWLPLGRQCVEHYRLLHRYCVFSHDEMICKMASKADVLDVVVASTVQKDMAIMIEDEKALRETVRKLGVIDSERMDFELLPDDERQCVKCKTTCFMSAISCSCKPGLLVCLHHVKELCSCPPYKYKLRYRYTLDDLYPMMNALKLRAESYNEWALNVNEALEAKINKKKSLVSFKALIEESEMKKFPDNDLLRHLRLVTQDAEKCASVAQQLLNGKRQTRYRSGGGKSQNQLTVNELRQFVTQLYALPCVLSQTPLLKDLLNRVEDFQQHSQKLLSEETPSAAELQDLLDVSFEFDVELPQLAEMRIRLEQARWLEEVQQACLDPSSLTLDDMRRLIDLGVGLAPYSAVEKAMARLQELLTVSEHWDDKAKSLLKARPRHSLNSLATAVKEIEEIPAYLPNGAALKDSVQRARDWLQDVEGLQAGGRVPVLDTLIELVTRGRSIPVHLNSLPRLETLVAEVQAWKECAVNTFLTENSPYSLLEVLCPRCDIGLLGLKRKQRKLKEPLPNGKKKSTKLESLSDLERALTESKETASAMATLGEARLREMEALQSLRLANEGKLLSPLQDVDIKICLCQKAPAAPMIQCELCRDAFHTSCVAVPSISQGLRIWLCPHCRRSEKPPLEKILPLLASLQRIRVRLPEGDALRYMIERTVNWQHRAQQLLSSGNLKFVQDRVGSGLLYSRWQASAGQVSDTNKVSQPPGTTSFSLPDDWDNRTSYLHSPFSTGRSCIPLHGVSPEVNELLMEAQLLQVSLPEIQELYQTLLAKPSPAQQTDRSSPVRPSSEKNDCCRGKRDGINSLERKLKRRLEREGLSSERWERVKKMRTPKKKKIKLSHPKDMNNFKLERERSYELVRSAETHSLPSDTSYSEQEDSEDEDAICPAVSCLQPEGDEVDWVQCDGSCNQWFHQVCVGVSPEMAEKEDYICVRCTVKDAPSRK

Take “i53-DM: 53BP1-binding deficient mutant of i53 (P69L, L70V)”: in the series with KDM5B, the “Total peptides, KDM5B” value was found to be 3. The “Total peptides, HIST2H2BE” value in the series with HIST2H2BE was found to be 3.

Turning to “i53: UbvG08 with C-terminal di-glycine removed and I44A mutation; genetically encoded inhibitor of 53BP1”, the “Retrieval of 53BP1 in co-immunoprecipitation” value in the series with 53BP1 is given as “efficiently retrieved 53BP1”. In addition, the “Total peptides, TP53BP1” value in the series with TP53BP1 (Flag IP, 293T Flp-In/T-Rex extracts, LC-MS/MS, one column per replicate IP, listed as Flag-i53) is 66 and 38 and 21. For the same substance, the “Selectivity of binding to cellular proteins (IP-MS conclusion)” value in the series with TP53BP1 (three biological replicate IPs, interactors in two or more experiments) is given as “highly selective binder of 53BP1”. Besides, the “Stimulation of HDR by ssODNs, BFP-to-GFP conversion” value in series [1] is recorded as 1.3-1.4 fold.
